Literature values as cited in PMC7761212.

Biological target: rice hemoglobin (Oryza sativa) (UniProt O04986)

Sequence of rice hemoglobin (O04986 whole entry): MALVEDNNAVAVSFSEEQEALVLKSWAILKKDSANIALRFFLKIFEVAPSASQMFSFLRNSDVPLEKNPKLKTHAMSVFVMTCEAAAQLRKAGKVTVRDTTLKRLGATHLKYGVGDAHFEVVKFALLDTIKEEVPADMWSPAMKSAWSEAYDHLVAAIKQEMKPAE

Kd: 80 µM
Substance: rice hemoglobin (from UniProt O04986)
